T1: SNTB1, Q13884
T1 sequence (Q13884 107-205, limits assumed, looked up): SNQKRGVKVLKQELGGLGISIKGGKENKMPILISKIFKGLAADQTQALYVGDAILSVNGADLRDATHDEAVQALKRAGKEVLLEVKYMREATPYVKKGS

T2: PTPN13_1, Q12923
T2 sequence (Q12923 1088-1188, limits assumed, looked up): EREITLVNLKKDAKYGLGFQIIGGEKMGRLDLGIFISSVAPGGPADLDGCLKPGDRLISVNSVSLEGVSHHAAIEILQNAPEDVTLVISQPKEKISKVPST

T3: SIPA1L2, Q9P2F8
T3 sequence (Q9P2F8 945-1036, limits assumed, looked up): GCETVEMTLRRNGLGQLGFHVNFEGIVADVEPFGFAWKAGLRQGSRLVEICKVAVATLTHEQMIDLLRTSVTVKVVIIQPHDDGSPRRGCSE

T4: HTRA4, P83105
T4 sequence (P83105 378-476, limits assumed, looked up): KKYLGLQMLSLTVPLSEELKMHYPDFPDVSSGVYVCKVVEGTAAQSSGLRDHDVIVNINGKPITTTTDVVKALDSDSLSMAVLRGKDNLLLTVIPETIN

T5: NHERF3_4, Q5T2W1
T5 sequence (Q5T2W1 373-468, limits assumed, looked up): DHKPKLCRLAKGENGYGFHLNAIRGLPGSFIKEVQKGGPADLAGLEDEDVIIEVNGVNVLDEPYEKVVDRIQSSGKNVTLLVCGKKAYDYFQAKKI

T6: SNTG2, Q9NY99
T6 sequence (Q9NY99 68-166, limits assumed, looked up): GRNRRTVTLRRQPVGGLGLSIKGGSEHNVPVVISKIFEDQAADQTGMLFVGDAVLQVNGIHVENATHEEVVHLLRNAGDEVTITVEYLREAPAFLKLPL

T7: MPP2, Q14168
T7 sequence (Q14168 180-250, limits assumed, looked up): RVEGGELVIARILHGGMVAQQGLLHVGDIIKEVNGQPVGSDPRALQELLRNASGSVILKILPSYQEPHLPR

T8: LRRC7, Q96NW7
T8 sequence (Q96NW7 1440-1537, limits assumed, looked up): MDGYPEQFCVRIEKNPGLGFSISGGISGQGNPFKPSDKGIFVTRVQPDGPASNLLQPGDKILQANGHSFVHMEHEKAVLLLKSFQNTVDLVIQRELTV

T9: MPDZ_5, O75970
T9 sequence (O75970 695-796, limits assumed, looked up): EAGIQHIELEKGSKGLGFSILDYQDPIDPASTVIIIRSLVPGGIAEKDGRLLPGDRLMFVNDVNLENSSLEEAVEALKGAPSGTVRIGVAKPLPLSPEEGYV

T10: FRMPD1, Q5SYB0
T10 sequence (Q5SYB0 52-145, limits assumed, looked up): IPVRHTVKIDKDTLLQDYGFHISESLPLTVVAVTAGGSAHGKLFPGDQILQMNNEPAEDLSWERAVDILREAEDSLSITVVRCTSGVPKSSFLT

T11: CARD11, Q9BXL7
T11 sequence (Q9BXL7 662-765, limits assumed, looked up): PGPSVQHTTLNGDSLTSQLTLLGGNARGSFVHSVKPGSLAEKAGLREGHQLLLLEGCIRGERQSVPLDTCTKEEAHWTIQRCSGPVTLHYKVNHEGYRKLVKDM


Tests used:
Assay in all cases: holdup assay
Design in all cases: key: below the threshold = too weak to quantify, mostly under pKd 3.1 to 4
Details in all cases: plain residues with an end cap or a label only (N-terminal biotin on a linker: ado-ado)
SNTB1, Q13884 = target: T1, SNTB1, Q13884
TJP1_3, Q07157 = target: TJP1_3, Q07157
Inadl_5, Q8NI35 = target: Inadl_5, Q8NI35
DLG1_2, Q12959 = target: DLG1_2, Q12959
MAGI3_2, Q5TCQ9 = target: MAGI3_2, Q5TCQ9
PTPN13_1, Q12923 = target: T2, PTPN13_1, Q12923
PICK1, Q9NRD5 = target: PICK1, Q9NRD5
DLG4_2, P78352 = target: DLG4_2, P78352
GRASP, Q7Z6J2 = target: GRASP, Q7Z6J2
LAP2, Q96RT1 = target: LAP2, Q96RT1
DLG4_3, P78352 = target: DLG4_3, P78352
SIPA1L2, Q9P2F8 = target: T3, SIPA1L2, Q9P2F8
HTRA4, P83105 = target: T4, HTRA4, P83105
HTRA1, Q92743 = target: HTRA1, Q92743
NHERF3_4, Q5T2W1 = target: T5, NHERF3_4, Q5T2W1
SNTG2, Q9NY99 = target: T6, SNTG2, Q9NY99
MPP2, Q14168 = target: T7, MPP2, Q14168
NHERF2_2, Q15599 = target: NHERF2_2, Q15599
GRIP2_3, Q9C0E4 = target: GRIP2_3, Q9C0E4
LRRC7, Q96NW7 = target: T8, LRRC7, Q96NW7
MPDZ_5, O75970 = target: T9, MPDZ_5, O75970
FRMPD2_2, Q68DX3 = target: FRMPD2_2, Q68DX3
FRMPD1, Q5SYB0 = target: T10, FRMPD1, Q5SYB0
Inadl_1, Q8NI35 = target: Inadl_1, Q8NI35
CARD11, Q9BXL7 = target: T11, CARD11, Q9BXL7
NHERF4_1, Q86UT5-2 = target: NHERF4_1, Q86UT5-2
NHERF4_1, Q86UT5-2, sequence (Q86UT5 other isoform, or with tags, fused parts or gaps): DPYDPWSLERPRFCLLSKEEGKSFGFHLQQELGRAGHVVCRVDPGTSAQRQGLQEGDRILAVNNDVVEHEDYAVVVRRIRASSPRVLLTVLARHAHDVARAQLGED

DLG4_3, P78352, sequence (P78352 306-403): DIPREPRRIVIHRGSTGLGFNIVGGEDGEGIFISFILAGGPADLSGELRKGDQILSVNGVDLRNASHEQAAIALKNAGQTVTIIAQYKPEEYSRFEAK
GRASP, Q7Z6J2, sequence (Q7Z6J2 96-193): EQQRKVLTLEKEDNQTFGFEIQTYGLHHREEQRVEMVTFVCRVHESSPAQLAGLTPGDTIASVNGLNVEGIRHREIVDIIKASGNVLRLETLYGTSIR
DLG1_2, Q12959, sequence (Q12959 314-412): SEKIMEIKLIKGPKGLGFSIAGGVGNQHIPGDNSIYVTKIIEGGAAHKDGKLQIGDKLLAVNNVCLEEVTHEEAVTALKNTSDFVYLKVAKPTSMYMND
LAP2, Q96RT1, sequence (Q96RT1 other isoform, or with tags, fused parts or gaps): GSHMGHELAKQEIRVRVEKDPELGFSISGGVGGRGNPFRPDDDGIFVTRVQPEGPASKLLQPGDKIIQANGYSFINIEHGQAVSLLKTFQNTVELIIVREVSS
GRIP2_3, Q9C0E4, sequence (Q9C0E4 238-339): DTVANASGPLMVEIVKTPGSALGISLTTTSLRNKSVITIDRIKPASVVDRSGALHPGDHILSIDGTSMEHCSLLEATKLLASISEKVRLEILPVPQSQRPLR
PICK1, Q9NRD5, sequence (Q9NRD5 17-115): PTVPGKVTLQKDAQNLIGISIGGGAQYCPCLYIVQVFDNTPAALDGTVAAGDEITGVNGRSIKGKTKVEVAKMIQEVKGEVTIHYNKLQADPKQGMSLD
NHERF2_2, Q15599, sequence (Q15599 142-238): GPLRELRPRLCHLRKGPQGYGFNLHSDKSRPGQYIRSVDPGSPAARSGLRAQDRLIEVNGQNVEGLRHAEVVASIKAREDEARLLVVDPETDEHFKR
TJP1_3, Q07157, sequence (Q07157 416-512): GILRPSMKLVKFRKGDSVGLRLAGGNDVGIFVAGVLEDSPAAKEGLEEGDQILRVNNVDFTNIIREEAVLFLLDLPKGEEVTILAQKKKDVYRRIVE
Inadl_5, Q8NI35, sequence (Q8NI35 673-780): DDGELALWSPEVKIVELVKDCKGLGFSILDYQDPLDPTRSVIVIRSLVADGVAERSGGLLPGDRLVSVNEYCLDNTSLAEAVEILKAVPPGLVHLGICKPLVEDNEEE
Inadl_1, Q8NI35, sequence (Q8NI35 113-229): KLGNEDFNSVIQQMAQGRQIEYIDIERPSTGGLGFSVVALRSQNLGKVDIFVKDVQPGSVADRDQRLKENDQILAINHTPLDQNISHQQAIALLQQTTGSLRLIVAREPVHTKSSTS
HTRA1, Q92743, sequence (Q92743 360-477): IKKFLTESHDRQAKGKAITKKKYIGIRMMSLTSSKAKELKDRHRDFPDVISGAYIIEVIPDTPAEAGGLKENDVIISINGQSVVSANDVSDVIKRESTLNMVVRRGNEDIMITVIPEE
MAGI3_2, Q5TCQ9, sequence (Q5TCQ9 398-503): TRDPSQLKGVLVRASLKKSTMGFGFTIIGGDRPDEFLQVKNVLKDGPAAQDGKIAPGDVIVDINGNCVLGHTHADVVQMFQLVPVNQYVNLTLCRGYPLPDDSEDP
FRMPD2_2, Q68DX3, sequence (Q68DX3 944-1038): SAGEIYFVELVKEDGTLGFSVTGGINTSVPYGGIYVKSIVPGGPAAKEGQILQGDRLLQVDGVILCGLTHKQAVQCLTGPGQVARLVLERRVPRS
DLG4_2, P78352, sequence (P78352 155-259): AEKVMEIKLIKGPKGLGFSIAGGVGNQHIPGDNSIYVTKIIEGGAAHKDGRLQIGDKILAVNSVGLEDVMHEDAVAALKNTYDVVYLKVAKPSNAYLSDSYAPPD

| Binder | pKd (SNTB1, Q13884) | pKd (Inadl_5, Q8NI35) | pKd (DLG1_2, Q12959) | pKd (MAGI3_2, Q5TCQ9) | pKd (PTPN13_1, Q12923) | pKd (PICK1, Q9NRD5) | pKd (GRASP, Q7Z6J2) | pKd (LAP2, Q96RT1) | pKd (DLG4_3, P78352) | pKd (SIPA1L2, Q9P2F8) | pKd (HTRA4, P83105) | pKd (NHERF3_4, Q5T2W1) | pKd (SNTG2, Q9NY99) | pKd (MPP2, Q14168) | pKd (NHERF2_2, Q15599) | pKd (GRIP2_3, Q9C0E4) | pKd (LRRC7, Q96NW7) | pKd (MPDZ_5, O75970) | pKd (FRMPD2_2, Q68DX3) | pKd (FRMPD1, Q5SYB0) | also measured |
| --- | --- | --- | --- | --- | --- | --- | --- | --- | --- | --- | --- | --- | --- | --- | --- | --- | --- | --- | --- | --- | --- |
| KSTTRSSSSC [NDE1, Q9NXR1;Q9NXR1-2] | below the threshold | below the threshold | below the threshold | below the threshold | below the threshold | below the threshold | below the threshold | below the threshold | below the threshold | below the threshold | below the threshold | below the threshold | below the threshold | below the threshold | below the threshold | below the threshold | below the threshold | below the threshold | below the threshold | below the threshold | pKd (TJP1_3, Q07157): below the threshold; pKd (DLG4_2, P78352): below the threshold; pKd (HTRA1, Q92743): below the threshold; pKd (Inadl_1, Q8NI35): below the threshold; pKd (CARD11, Q9BXL7): below the threshold |
| SKSLERATQL [COMMD3, Q9UBI1] | 4.24 | below the threshold | 3.92 | 3.75 | below the threshold | below the threshold | 4 | below the threshold | below the threshold | 3.51 | below the threshold | 4.67 | below the threshold | below the threshold | 4.58 | below the threshold | below the threshold | below the threshold | 3.65 | below the threshold | pKd (TJP1_3, Q07157): 3.51; pKd (DLG4_2, P78352): 3.97; pKd (NHERF4_1, Q86UT5-2): 4.23; pKd (HTRA1, Q92743): 3.89; pKd (Inadl_1, Q8NI35): below the threshold; pKd (CARD11, Q9BXL7): below the threshold |
| EYRKDNKVAA [LSM14A, Q8ND56;Q8ND56-2] | below the threshold | below the threshold | below the threshold | below the threshold | below the threshold | below the threshold | below the threshold | below the threshold | below the threshold | below the threshold | below the threshold | below the threshold | below the threshold | below the threshold | below the threshold | below the threshold | below the threshold | below the threshold | below the threshold | below the threshold | pKd (Inadl_1, Q8NI35): below the threshold; pKd (CARD11, Q9BXL7): below the threshold |

Further lines, with some results ahead:

| pKd (SNTB1, Q13884) | pKd (Inadl_5, Q8NI35) | pKd (DLG1_2, Q12959) | pKd (MAGI3_2, Q5TCQ9) | pKd (PTPN13_1, Q12923) | pKd (PICK1, Q9NRD5) | pKd (GRASP, Q7Z6J2) | pKd (LAP2, Q96RT1) | pKd (DLG4_3, P78352) | pKd (SIPA1L2, Q9P2F8) | pKd (HTRA4, P83105) | pKd (NHERF3_4, Q5T2W1) | pKd (SNTG2, Q9NY99) | pKd (MPP2, Q14168) | pKd (NHERF2_2, Q15599) | pKd (GRIP2_3, Q9C0E4) | pKd (LRRC7, Q96NW7) | pKd (MPDZ_5, O75970) | pKd (FRMPD2_2, Q68DX3) | pKd (FRMPD1, Q5SYB0) | Binder | also measured |
| --- | --- | --- | --- | --- | --- | --- | --- | --- | --- | --- | --- | --- | --- | --- | --- | --- | --- | --- | --- | --- | --- |
| below the threshold | below the threshold | 3.53 | below the threshold | below the threshold | below the threshold | 3.47 | below the threshold | below the threshold | below the threshold | 3.92 | below the threshold | below the threshold | below the threshold | below the threshold | below the threshold | below the threshold | below the threshold | below the threshold | below the threshold | LRYARPADAL [PPP1R3G, B7ZBB8] | pKd (TJP1_3, Q07157): below the threshold; pKd (DLG4_2, P78352): below the threshold; pKd (NHERF4_1, Q86UT5-2): 4.29; pKd (HTRA1, Q92743): 3.67; pKd (Inadl_1, Q8NI35): below the threshold; pKd (CARD11, Q9BXL7): below the threshold |
| 5.07 | 3.55 | 5.14 | 4.44 | below the threshold | below the threshold | 4.12 | 4.56 | below the threshold | below the threshold | below the threshold | below the threshold | 4.69 | below the threshold | 4.33 | below the threshold | below the threshold | below the threshold | 4.83 | below the threshold | QELLEYETTV [XKR7, Q5GH72] | pKd (TJP1_3, Q07157): below the threshold; pKd (DLG4_2, P78352): 4.91; pKd (NHERF4_1, Q86UT5-2): below the threshold; pKd (HTRA1, Q92743): 4.69; pKd (Inadl_1, Q8NI35): below the threshold; pKd (CARD11, Q9BXL7): below the threshold |
| below the threshold | 3.48 | 3.98 | below the threshold | 3.7 | below the threshold | below the threshold | 3.93 | below the threshold | below the threshold | 3.92 | below the threshold | below the threshold | below the threshold | below the threshold | below the threshold | below the threshold | below the threshold | below the threshold | below the threshold | GDHLDRRVVL [VAC14, Q08AM6] | pKd (TJP1_3, Q07157): below the threshold; pKd (DLG4_2, P78352): below the threshold; pKd (NHERF4_1, Q86UT5-2): 4.07; pKd (HTRA1, Q92743): 4.25; pKd (Inadl_1, Q8NI35): below the threshold; pKd (CARD11, Q9BXL7): below the threshold |

Reference: paper PMC9482650, “Quantitative fragmentomics allow affinity mapping of interactomes” (Nature Communications, 2022)
